Test results reported in patent KR20220147769A (dated 2022).
Positions count from the first letter of the chain named.

B1: RB6 (antibody, V domains shown)
VH: EVQLLESGGGLVQPGGSLRLSCAASGFTFSSYDMSWVRQAPGKGLEWVSGISYSGGSTYYADSVKGRFTISRDNSKNTLYLQMNSLRAEDTAVYYCARDVNFVPLVTFDYWGQGTLVTVSS
VL: QSVLTQPPSASGTPGQRVTLSCTGSSSNIGSNSVTWYQQLPGTAPKLLIYDDNQRPSGVPDRFSGSKSGTSASLAISGLRSEDEADYYCGTWDYSLSAYVFGGGTKLTVL
notes: also called clone RB6; antibody (iii)
B2: RD10 (antibody, V domains shown)
VH: EVQLLESGGGLVQPGGSLRLSCAASGFTFSDYAMSWVRQAPGKGLEWVSAIYPGGGSTYYADSVKGRFTISRDNSKNTLYLQMNSLRAEDTAVYYCARNLFGFDYWGQGTLVTVSS
VL: B1 VL with L20I, S33A, T35Y, N53S, Q54N, T91S, Y94D
notes: also called clone RD10; antibody (v)
B3: RD3 (antibody, V domains shown)
VH: EVQLLESGGGLVQPGGSLRLSCAASGFTFSDYAMSWVRQAPGKGLEWVSWIYSGSGNKYYADSVKGRFTISRDNSKNTLYLQMNSLRAEDTAVYYCARFPIARTSNSQSSYDGMDVWGQGTLVTVSS
VL: B1 VL with L20I, T23S, S33A, T35S, D51A, Q54K, T91A, Y94S, S97N
notes: also called clone RD3; antibody (iv)

Each binder was assayed against T1, SARS-CoV S protein RBD antigen (SARS-CoV, UniProt P59594 306-527) (assay: ELISA, 0.1 μg antigen coated, IgG4).
T1 construct: also called SARS-CoV RBD

Binder | binding result
B1 | binds
B2 | binds
B3 | binds
